Where two headings read alike, the source gives them in different places. Where no end group is shown, it is not given here.
Legend:
[1] = biological target: T1, IL-18Rα-Fc (CD218a protein, Fc tag; ECD 19-329; ACROBiosystems, Inc, Cat. No. IL1-H5259) (UniProt Q13478 19-329); experiment: ELISA
T1 chain: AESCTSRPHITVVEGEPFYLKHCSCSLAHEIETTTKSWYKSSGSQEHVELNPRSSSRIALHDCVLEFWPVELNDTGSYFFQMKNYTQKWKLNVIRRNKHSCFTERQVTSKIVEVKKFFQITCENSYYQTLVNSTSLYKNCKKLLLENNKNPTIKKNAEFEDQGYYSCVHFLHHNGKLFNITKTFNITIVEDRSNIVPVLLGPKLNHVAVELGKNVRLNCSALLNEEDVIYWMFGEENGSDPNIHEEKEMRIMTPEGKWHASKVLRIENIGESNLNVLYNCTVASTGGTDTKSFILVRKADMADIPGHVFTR

[2] = biological target: T1, IL-18Rα-Fc (CD218a protein, Fc tag; ECD …); experiment: ELISA
[3] = biological target: T1, IL-18Rα-Fc (CD218a protein, Fc tag; ECD …); experiment: competition ELISA
[4] = biological target: T1, IL-18Rα-Fc (CD218a protein, Fc tag; ECD …); experiment: competition ELISA; tracer 7C06(bn1713)/NA-HRP 75 nM

**Q.** GGICWVPFHYLDELMCTGG-biotin (cysteine pairing not given here) [biotinylated 4D07] was tested. Which EC50 [1] did it give?
**A.** Its EC50 is 0.16 nM.

**Q.** How did the EC50 [2] turn out when GGELCWRPFSFVDCEEGG-biotin (cysteine pairing not given here) [biotinylated alpha synthetic F1a Consensus Construct] was run?
**A.** The EC50 was 0.11 nM.

**Q.** How did the IC50 [3] turn out when GGREDMECFWSPGQVWCIPSYLGG [10D09] was run?
**A.** Its IC50 is 11 nM.

**Q.** GGFFECFYSPGHEWCIPSGG [7C06] was tested. Which IC50 [4] did it give?
**A.** Its IC50 is 350 nM.

**Q.** Which EC50 [1] does the source give for GGFFECFYSPGHEWCIPSGG-biotin (cysteine pairing not given here) [biotinylated 7C06] here?
**A.** Its EC50 is 0.26 nM.

Reference: patent US20240158457A1 (published 2024)
